Test results reported in doi:10.1101/2024.03.27.586992, “Molecular basis for condensin enrichment at pericentromeres” (bioRxiv, 2024).

Assays:
Details in all cases: both partners purified
Ycg1(6-932, Δ499-555) = target: T1, Ycg1(6-932, Δ499-555) (S. cerevisiae, UniProt Q06680 6-932, Δ499-555); experiment: cross-linking; BS3 cross-linking mass spectrometry; Sgo1: Ycg1-Brn1 molar ratio 1.5:1; 25 mM HEPES pH7.5, 500 mM NaCl, 10% glycerol; 2 hours on ice; crosslinks with score>10.5
T1 construct: Stood in the assay as a chain of m6; made a molecule for the cross-links
T1 sequence (looked up): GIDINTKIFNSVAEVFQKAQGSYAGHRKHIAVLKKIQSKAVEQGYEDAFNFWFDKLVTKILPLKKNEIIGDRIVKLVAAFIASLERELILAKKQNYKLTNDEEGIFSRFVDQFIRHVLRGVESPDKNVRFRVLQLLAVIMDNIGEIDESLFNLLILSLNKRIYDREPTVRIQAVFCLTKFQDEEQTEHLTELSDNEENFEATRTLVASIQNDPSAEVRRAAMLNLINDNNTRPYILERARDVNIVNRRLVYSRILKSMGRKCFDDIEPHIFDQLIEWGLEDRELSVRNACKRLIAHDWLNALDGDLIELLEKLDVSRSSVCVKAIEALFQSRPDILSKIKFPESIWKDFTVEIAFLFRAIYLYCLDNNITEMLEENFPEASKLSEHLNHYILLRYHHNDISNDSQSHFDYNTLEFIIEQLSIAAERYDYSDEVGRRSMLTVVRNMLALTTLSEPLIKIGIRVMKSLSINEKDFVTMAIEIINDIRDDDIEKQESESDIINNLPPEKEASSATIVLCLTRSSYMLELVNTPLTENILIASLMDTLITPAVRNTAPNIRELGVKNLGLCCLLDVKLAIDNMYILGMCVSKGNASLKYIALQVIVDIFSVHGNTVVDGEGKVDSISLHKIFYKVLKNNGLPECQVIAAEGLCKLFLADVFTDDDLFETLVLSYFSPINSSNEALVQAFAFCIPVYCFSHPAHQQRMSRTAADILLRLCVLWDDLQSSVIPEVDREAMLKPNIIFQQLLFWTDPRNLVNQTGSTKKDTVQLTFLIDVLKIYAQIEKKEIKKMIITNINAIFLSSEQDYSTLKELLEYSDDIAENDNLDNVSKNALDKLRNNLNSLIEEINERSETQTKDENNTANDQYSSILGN

[1] = target: T2, Ycg1(6-932, Δ499-555)-Brn1(384-529) (S. cerevisiae, UniProt Q06680 6-932; P38170 384-529, Δ499-555); experiment: co-IP; two purified recombinant proteins incubated 2.5 hours with anti-V5-coupled dynabeads (V5-Sgo1 held); 25 mM HEPES pH 7.5, 500 mM NaCl, 10 % glycerol, 1 mM DTT, 0.1 % NP-40; silver stain or immunoblot
T2 construct: Brn1, S. cerevisiae, residues 384-529; also called Ycg1-Brn1; Ycg1-short Brn1
T2 sequence (looked up) 1: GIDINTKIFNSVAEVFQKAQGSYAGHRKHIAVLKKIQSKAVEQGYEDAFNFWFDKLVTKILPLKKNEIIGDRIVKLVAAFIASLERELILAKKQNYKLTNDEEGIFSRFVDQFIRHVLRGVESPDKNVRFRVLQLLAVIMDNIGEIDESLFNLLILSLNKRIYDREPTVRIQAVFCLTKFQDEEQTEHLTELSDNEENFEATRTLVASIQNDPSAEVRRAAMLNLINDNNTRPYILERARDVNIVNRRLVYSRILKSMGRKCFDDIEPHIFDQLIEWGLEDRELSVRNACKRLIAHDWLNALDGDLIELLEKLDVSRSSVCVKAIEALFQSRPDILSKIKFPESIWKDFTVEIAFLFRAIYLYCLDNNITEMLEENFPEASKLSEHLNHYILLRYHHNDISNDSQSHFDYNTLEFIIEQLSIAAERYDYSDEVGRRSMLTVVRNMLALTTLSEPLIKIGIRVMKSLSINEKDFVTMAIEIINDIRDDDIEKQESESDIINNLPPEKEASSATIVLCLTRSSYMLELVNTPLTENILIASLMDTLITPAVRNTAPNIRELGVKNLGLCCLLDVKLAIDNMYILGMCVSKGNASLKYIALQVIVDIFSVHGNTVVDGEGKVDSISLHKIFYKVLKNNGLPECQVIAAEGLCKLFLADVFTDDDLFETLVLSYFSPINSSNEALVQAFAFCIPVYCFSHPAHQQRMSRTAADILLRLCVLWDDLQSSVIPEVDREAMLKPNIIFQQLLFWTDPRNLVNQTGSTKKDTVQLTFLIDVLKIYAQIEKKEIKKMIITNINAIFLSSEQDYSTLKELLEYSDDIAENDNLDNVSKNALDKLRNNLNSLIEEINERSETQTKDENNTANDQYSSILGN
T2 sequence (looked up) 2: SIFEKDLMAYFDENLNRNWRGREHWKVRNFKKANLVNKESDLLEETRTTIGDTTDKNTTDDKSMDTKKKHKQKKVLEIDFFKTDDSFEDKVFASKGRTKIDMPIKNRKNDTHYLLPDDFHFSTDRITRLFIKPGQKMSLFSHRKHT

[2] = target: T2, Ycg1(6-932, Δ499-555)-Brn1(384-529); experiment: co-IP; two purified recombinant proteins incubated 2.5 hours with anti-GFP-coupled dynabeads (GFP-Sgo1 variant held); 25 mM HEPES pH 7.5, 500 mM NaCl, 10 % glycerol, 1 mM DTT, 0.1 % NP-40; silver stain
[3] = target: T3, Ycg1 (subunit within the purified pentameric condensin holocomplex) (S. cerevisiae, UniProt Q06680 1-1035); experiment: cross-linking; BS3 cross-linking mass spectrometry of full length Sgo1 with condensin holo-complex, 1:1 (w:w); 25 mM HEPES pH7.5, 150 mM NaCl, 5% glycerol, 1mM DTT; 2 hours on ice; crosslinks with score>10.5
T3 construct: Ycg1, HAWK subunit of S. cerevisiae condensin; Stood in the assay as a subunit of m2; made a molecule for the cross-links to Sgo1; source: purified from yeast as part of the pentameric condensin complex
T3 sequence (looked up): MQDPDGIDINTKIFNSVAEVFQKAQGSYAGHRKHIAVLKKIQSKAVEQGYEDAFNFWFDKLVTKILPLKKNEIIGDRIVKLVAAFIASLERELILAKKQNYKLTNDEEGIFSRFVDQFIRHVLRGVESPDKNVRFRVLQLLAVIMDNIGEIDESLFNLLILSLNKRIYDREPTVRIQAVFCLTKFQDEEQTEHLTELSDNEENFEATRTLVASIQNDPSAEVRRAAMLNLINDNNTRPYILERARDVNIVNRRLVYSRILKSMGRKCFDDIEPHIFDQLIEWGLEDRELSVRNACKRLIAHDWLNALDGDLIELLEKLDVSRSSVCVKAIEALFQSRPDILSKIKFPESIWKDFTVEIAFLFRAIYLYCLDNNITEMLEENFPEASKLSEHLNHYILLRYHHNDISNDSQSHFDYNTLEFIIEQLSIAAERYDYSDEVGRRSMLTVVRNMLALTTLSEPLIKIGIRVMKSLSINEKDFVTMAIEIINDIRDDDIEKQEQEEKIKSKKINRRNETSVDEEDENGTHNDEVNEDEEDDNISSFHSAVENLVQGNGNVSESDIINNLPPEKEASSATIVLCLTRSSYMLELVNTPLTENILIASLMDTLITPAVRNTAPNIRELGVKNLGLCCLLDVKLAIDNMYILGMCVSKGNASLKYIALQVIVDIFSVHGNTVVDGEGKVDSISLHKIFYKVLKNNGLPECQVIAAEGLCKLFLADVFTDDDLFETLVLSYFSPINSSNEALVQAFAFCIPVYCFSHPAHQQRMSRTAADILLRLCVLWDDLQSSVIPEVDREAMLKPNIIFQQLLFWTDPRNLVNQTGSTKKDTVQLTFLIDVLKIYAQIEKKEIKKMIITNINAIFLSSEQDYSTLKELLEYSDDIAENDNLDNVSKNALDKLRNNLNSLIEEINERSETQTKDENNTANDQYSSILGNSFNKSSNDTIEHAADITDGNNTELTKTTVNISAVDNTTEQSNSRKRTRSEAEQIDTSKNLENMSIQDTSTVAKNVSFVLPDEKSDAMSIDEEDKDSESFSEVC

| Binder | binding result (Ycg1(6-932, Δ499-555)) | binding result [2] | other results |
| --- | --- | --- | --- |
| V5-Sgo1 (350-590) (domain or fragment, S. cerevisiae, UniProt Q08490 350-590, looked up, Sgo1, S. cerevisiae, residues 350-590 (C-terminal region); also called C-terminus of Sgo1 (350-590); C-Sgo1; source: protease-deficient yeast strain (AM8184), galactose induced, purified as V5-Sgo1 (FL) (Ni2+ IMAC, gel filtration)) EVMPVSNMSSNSEISFTRTRRTRGKAVDYTLPSLRAKMRRPSEKLVDATTVIDIHDLQVSKRNRETSHKRKSLSQDSIPDEPQLREVVVSKDYGTPKGKKTEDEIHEDTAHLMTTSNNNSNNKNEKKLTSNNSPKKSSPLLDITNKSENKKKSTRTKKLFKNAIVNNLSDENSTTRPSKSSKGTSNNNNNYNNFDNNNSNINNVNNKSVSFRLNEDDLAVFDLFGNGKAVKHQPKTYRTKK | binds | – | binding result [1]: binds |
| Brn1(384-529) (domain or fragment, S. cerevisiae, UniProt P38170 384-529, looked up, Brn1, S. cerevisiae, residues 384-529; Stood in the assay as a chain of m6; made a molecule for the cross-links; also called short Brn1) SIFEKDLMAYFDENLNRNWRGREHWKVRNFKKANLVNKESDLLEETRTTIGDTTDKNTTDDKSMDTKKKHKQKKVLEIDFFKTDDSFEDKVFASKGRTKIDMPIKNRKNDTHYLLPDDFHFSTDRITRLFIKPGQKMSLFSHRKHT | binds | – | – |
| GFP-Sgo1(350-590) (domain or fragment, S. cerevisiae, UniProt Q08490 350-590, looked up, Sgo1, S. cerevisiae, residues 350-590; codon optimized gene; Written GFP-Sgo1; also called GFP-tagged C-Sgo1; wild type) EVMPVSNMSSNSEISFTRTRRTRGKAVDYTLPSLRAKMRRPSEKLVDATTVIDIHDLQVSKRNRETSHKRKSLSQDSIPDEPQLREVVVSKDYGTPKGKKTEDEIHEDTAHLMTTSNNNSNNKNEKKLTSNNSPKKSSPLLDITNKSENKKKSTRTKKLFKNAIVNNLSDENSTTRPSKSSKGTSNNNNNYNNFDNNNSNINNVNNKSVSFRLNEDDLAVFDLFGNGKAVKHQPKTYRTKK | – | binds | – |
| GFP-Sgo1 (472-530) (domain or fragment, S. cerevisiae, UniProt Q08490 472-530, looked up, Sgo1, S. cerevisiae, residues 472-530 (holds CR1); also called wild type; source: E. coli BL21(DE3), purified (Ni-NTA resin, dialysis)) KNEKKLTSNNSPKKSSPLLDITNKSENKKKSTRTKKLFKNAIVNNLSDENSTTRPSKSS | – | binds | – |
| V5-Sgo1 (FL) (natural protein, S. cerevisiae, UniProt Q08490 1-590, looked up, Sgo1 (shugoshin), S. cerevisiae, full length; Written V5-Sgo1; also called full length Sgo1; shugoshin; source: protease-deficient yeast strain (AM8184), purified (Ni2+ HiTrap IMAC, Superose 6 gel filtration)) MPKRKIAPNKESSRRTVSHDDLTPQIQEFQNLMDLESQKVENIRQSYSRQNSLLAKDNSILKIKVNSLEKKISQLVQENVTLRSKTSISEAIYRERLSNQLQVIENGIIQRFDEIFYMFENVRKNENLPSSSLRTMLKRTSSRSRSCSLSSPTYSKSYTRLSNHENNLSHESSFNKDDGPDLEPKAKKRKSSRRQSMFVSTSLEPEDETGENEPMMENSSVEVPAESHESAQVEETIDALNPEEENSDSVSNFTNSIIEYSIPEENPTEPEHSSSKLEIFNDSTNMLSTVPSNPLPLPLPGPSATLPTTTSDASTVYPSSSSSTNSHPKTKIKHSMKPPRIELKKKVIDEVMPVSNMSSNSEISFTRTRRTRGKAVDYTLPSLRAKMRRPSEKLVDATTVIDIHDLQVSKRNRETSHKRKSLSQDSIPDEPQLREVVVSKDYGTPKGKKTEDEIHEDTAHLMTTSNNNSNNKNEKKLTSNNSPKKSSPLLDITNKSENKKKSTRTKKLFKNAIVNNLSDENSTTRPSKSSKGTSNNNNNYNNFDNNNSNINNVNNKSVSFRLNEDDLAVFDLFGNGKAVKHQPKTYRTKK | – | – | binding result [3]: binds |
